From patent US10597674B2, “HPPD variants and methods of use” (BASF Agricultural Solutions Seed, US LLC, priority 2015, dated 2020)
Substitutions are numbered along the chain they refer to.

B1: 22 (protein)
chain: MADLYENPMGLMGFEFIEFASPTPGTLEPIFEIMGFTKVATHRSKNVHLYRQGEINLILNNEPNSIASYFAAEHGPSVCGMAFRVKDSQKAYNRALELGAQPIHIDTGPMELNLPAIKGIGGAPLYLIDRFGEGSSIYDIDFVYLEGVERNPVGAGLKVIDHLTHNVYRGRMVYWANFYEKLFNFREARYFDIKGEYTGLTSKAMSAPDGMIRIPLNEESSKGAGQIEEFLMQFNGEGIQHVAFLTDDLVKTWDALKKIGMRFMTAPPDTYYEMLEGRLPDHGEPVDQLQARGILLDGSSVEGDKRLLLQIFSETLMGPVFFEFIQRKGDDGFGPHSFKVLFESIERDQVRRGVLTAD
modifications: mutant HPPD polypeptide
B2: 89 (protein)
chain: B1 chain with P268G, T270E, H336D, I345K
modifications: mutant HPPD polypeptide
B3: 59 (protein)
chain: B1 chain with P268G, T270E, H336D, S344R, I345V
modifications: mutant HPPD polypeptide
B4: 87 (protein)
chain: B1 chain with P268G, T270E, H336D, I345A
modifications: mutant HPPD polypeptide
B5: 30 (protein)
chain: B1 chain with P268S, T270S, I345K
modifications: mutant HPPD polypeptide
B6: 86 (protein)
chain: B1 chain with P268G, T270E, H336D, V340Q, I345V
modifications: mutant HPPD polypeptide
B7: 40 (protein)
chain: B1 chain with A204M, P268G, T270E, H336D, I345V
modifications: mutant HPPD polypeptide
B8: 7 (protein)
chain: B1 chain with H336D, V340A
modifications: mutant HPPD polypeptide
B9: 44 (protein)
chain: B1 chain with R213L, P268G, T270E, H336D, I345V
modifications: mutant HPPD polypeptide
B10: 10 (protein)
chain: B1 chain with H336D, I345V
modifications: mutant HPPD polypeptide
B11: 92 (protein)
chain: B1 chain with M264R, P268G, T270E, D330H, H336D, I345A
modifications: mutant HPPD polypeptide
B12: 24 (protein)
chain: B1 chain with I345V
modifications: mutant HPPD polypeptide
B13: 88 (protein)
chain: B1 chain with P268G, T270E, H336D
modifications: mutant HPPD polypeptide
B14: 39 (protein)
chain: B1 chain with A204L, P268G, T270E, H336D, I345V
modifications: mutant HPPD polypeptide
B15: 29 (protein)
chain: B1 chain with P268S, T270S, I345V
modifications: mutant HPPD polypeptide

Tested on: E. coli cells expressing an HPPD polypeptide
Test: Brown color bioassay in liquid culture, residual brown color formation (BCF), OD440 after 96 hours
Assay type: cell-based
Conditions: brown color formation in absence of Cmpd. 1, culture supernatant after 96 hours, 5 mM HPP
Experimental: In an additional experiment, mutant HPPD polypeptides were analyzed using the principle of a colorimetric brown color assay (as, for example, described in U.S. Pat. No. 6,768,044). Bacterial cells expressing the HPPD polypeptides according to this invention were assayed in 96 well plate format (Nunc® 96 DeepWell™ plate, Sigma-Aldrich, St. Louis, USA) for HPPD polypeptides with improved HPPD inhibitor herbicide tolerance.
E. coli cells were grown in liquid LB medium (Carl Roth GmbH+Co. KG, Karlsruhe, Germany) containing the selection agent for the expression vector pSE420(RI)NX (WO2014/043435) and 5 mM para-hydroxyphenylpyruvate (HPP; Sigma-Aldrich, St. Louis, USA), in the presence of absence of the HPPD inhibitor herbicide e.g. Cmpd. 1 (1000 μM). An overnight culture of E. coli culture expressing one of the respective HPPD polypeptides according to this invention were adjusted to an OD600 of 0.3-0.5 in a final volume of 500 μL and incubated at 30 degree Celsius. Residual brown color formation was determined by measuring the brown color formation (BCF) in the presence and absence of Cmpd. […] Therefore, after 96 hours the culture was centrifuged and the supernatant of the culture was used to measure the optical density of the soluble brown pigment formation at 440 nm (OD440 nm).

| Molecule | Control BCF OD440nm |
| --- | --- |
| B1 | 1.67 |
| B2 | 2.36 |
| B3 | 1.29 |
| B4 | 1.91 |
| B5 | 1.70 |
| B6 | 1.94 |
| B7 | 1.89 |
| B8 | 1.83 |
| B9 | 1.60 |
| B10 | 1.09 |
| B11 | 1.38 |
| B12 | 1.56 |
| B13 | 2.21 |
| B14 | 1.63 |
| B15 | 2.03 |

Same assay, conditions: brown color formation with Cmpd. 1 (1000 μM) relative to without, after 96 hours

| Molecule | Residual BCF OD440nm [%] |
| --- | --- |
| B1 | 58% |
| B2 | 67% |
| B3 | 51% |
| B4 | 68% |
| B5 | 56% |
| B6 | 74% |
| B7 | 58% |
| B8 | 40% |
| B9 | 40% |
| B10 | 65% |
| B11 | 59% |
| B12 | 48% |
| B13 | 77% |
| B14 | 55% |
| B15 | 42% |

Tested on: HPPD polypeptides (wild-type SEQ ID NO:1 and mutants)
Test: not given
Conditions: in the presence of Cmpd. 1, 15 μM inhibitor, high substrate concentration; kapp normalized to kapp without inhibitor
Experimental: For the generation of crude HPPD polypeptide extract in micro titer plates (MTP) for the determination of residual activity in inhibition assays, cells were grown in 40 or 150 μl LB medium containing 1% Glucose (Merck, Darmstadt, Germany) and 100 μg/ml ampicillin in a standard 96 well plate (Thermo Fisher Scientific, Waltham, USA) incubated for about 18 h in a humidity incubator at 37° C.
30 μl of this starter culture were added to 600 μl LB medium containing 100 μg/ml ampicillin and 150 mM Hepes (Merck, Darmstadt, Germany) as inoculum for the expression culture in 96 well plates (2 ml deep wells; HJ Bioanalytik, Erkelenz, Germany) The plates were sealed by an aluminium foil, and cells were incubated for 5 h at 37° C. on a plate shaker at 750 rpm. The expression was induced by addition of IPTG in a final concentration of 1 mM followed by further sealed incubation for about 18 h at 30° C. on a plate shaker at 750 rpm.
Cells were harvested by centrifugation at 4° C., 2500 g for 15 min discarding the supernatant. Cell pellets were stored at −80° C. and lysed in 250 μl 1× BugBuster® (Merck, Darmstadt, Germany) in 140 mM Tris (pH 7.8), with 1:25000 diluted BNase® (Qiagen, Hilden, Germany) by incubation of the resuspended cells for 30 min at 4° C. and 1000 rpm. Lysates were clarified by centrifugation for 15 min at 4° C., 2500 g, and 150 μl supernatant were transferred in standard 96 well plate (Thermo Fisher Scientific, Waltham, USA) for subsequent testing in quadruplets.
The activity of HPPD polypeptides was determined in absence or presence of HPPD inhibitors using the coupled HPPD activity assay (FIG. 1).
For the determination of the residual activity, the apparent kinetic constant (kapp) of the determined substrate conversion was measured as kinetic changes in absorbance at 320 nm in a coupled assay, in that homogentisate (HGA) formed by HPPD from HPP is directly converted into the well absorbing molecule maleylacetoacetate (MAA) by a second enzyme homogentisate dioxygenase (HGD), applied in excess uniformly in all assays (see FIG. 1). The measurements were performed in 384 micro titer plates (Greiner Bio-One GmbH, Frickenhausen, Germany) by plate readers (Tecan infinite M1000 or M1000PRO, Tecan, Männedorf, Switzerland). The kcat/kM ratio of an enzymatic activity is proportional to the apparent kinetic constant kapp and is proportional to kcat/kM*[E] ([E]=enzyme concentration). […] As both kapp measurements in the presence and absence of inhibitor were performed by use of the identical enzyme sample, crude or purified, and thereby at the same enzyme concentration, the enzyme concentration eliminates from the calculation of residual activity and the ratio of both kapp directly indicates the change of kM due to the inhibition.

| Molecule | Residual activity |
| --- | --- |
| B1 | 26% |
| B5 | 39% |
| B8 | 27% |
| B10 | 41% |
| B12 | 28% |
| B15 | 33% |

Same assay, conditions: in the presence of Cmpd. 1, 15 μM inhibitor, high substrate concentration; total change in signal normalized to no inhibitor

| Molecule | Residual turnover |
| --- | --- |
| B1 | 53% |
| B5 | 65% |
| B8 | 38% |
| B10 | 66% |
| B12 | 57% |
| B15 | 59% |

Same assay, conditions: in the presence of Cmpd. 2, 15 μM inhibitor, high substrate concentration; kapp normalized to kapp without inhibitor

| Molecule | Residual activity |
| --- | --- |
| B1 | 90% |
| B5 | 95% |
| B8 | 75% |
| B10 | 89% |
| B12 | 90% |
| B15 | 85% |

Same assay, conditions: in the presence of Cmpd. 2, 15 μM inhibitor, high substrate concentration; total change in signal normalized to no inhibitor

| Molecule | Residual turnover |
| --- | --- |
| B1 | n.i. |
| B5 | n.i. |
| B8 | 83% |
| B10 | n.i. |
| B12 | n.i. |
| B15 | n.i. |

Same assay, conditions: in the presence of diketonitrile (DKN), 60 μM inhibitor, high substrate concentration; kapp normalized to kapp without inhibitor

| Molecule | Residual activity |
| --- | --- |
| B1 | n.i |
| B5 | n.i. (no inhibition was observed under the given conditions) |
| B8 | 79% |
| B10 | n.i. (no inhibition was observed under the given conditions) |
| B12 | 93% |
| B15 | 94% |

Same assay, conditions: in the presence of diketonitrile (DKN), 60 μM inhibitor, high substrate concentration; total change in signal normalized to no inhibitor

| Molecule | Residual turnover |
| --- | --- |
| B1 | n.i. |
| B5 | n.i. |
| B8 | 92% |
| B10 | n.i. |
| B12 | n.i. |
| B15 | n.i. |

Same assay, conditions: in the presence of mesotrione (MST), 60 μM inhibitor, high substrate concentration; kapp normalized to kapp without inhibitor

| Molecule | Residual activity |
| --- | --- |
| B1 | 77% |
| B5 | 87% |
| B8 | 70% |
| B10 | 82% |
| B12 | 51% |
| B15 | 79% |

Same assay, conditions: in the presence of mesotrione (MST), 60 μM inhibitor, high substrate concentration; total change in signal normalized to no inhibitor

| Molecule | Residual turnover |
| --- | --- |
| B1 | 99% |
| B5 | n.i. |
| B8 | 85% |
| B10 | n.i. |
| B12 | 68% |
| B15 | 95% |

Same assay, conditions: kapp in presence of 50 μM Cmpd. 1, normalised to kapp without inhibitor; low substrate concentration

| Molecule | Residual activity |
| --- | --- |
| B2 | 23% |
| B3 | 19% |
| B4 | 17% |
| B6 | 23% |
| B7 | 65% |
| B9 | 58% |
| B11 | 61% |
| B13 | 20% |
| B14 | 34% |

Same assay, conditions: total change in signal in presence of 50 μM Cmpd. 1, normalised to that without inhibitor; low substrate concentration

| Molecule | Residual turnover |
| --- | --- |
| B2 | 43% |
| B3 | 46% |
| B4 | 53% |
| B6 | 45% |
| B7 | 77% |
| B9 | 78% |
| B11 | 81% |
| B13 | 44% |
| B14 | 61% |
